From patent publication US20200397865A1 (ACCELERON PHARMA, published 2020)

T1: ALK4-Fc:ActRIIB-Fc heterodimer (human, UniProt P36896 24-126; Q13705 20-134)
T1 construct: also called ALK4-Fc:ActRIIB-Fc heterodimeric complex; ALK4:ActRIIB heterodimer; not shown: linker and engineered Fc
T1 sequence 1: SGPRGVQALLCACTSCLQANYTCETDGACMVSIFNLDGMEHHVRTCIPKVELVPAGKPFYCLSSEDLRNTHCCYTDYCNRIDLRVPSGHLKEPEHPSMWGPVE
T1 sequence 2: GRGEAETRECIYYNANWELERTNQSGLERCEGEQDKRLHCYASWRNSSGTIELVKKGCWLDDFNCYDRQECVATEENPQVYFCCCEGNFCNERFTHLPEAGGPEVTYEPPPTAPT

B1: activin B (ligand, UniProt P09529 293-407, looked up)
chain: GLECDGRTNLCCRQQFFIDFRLIGWNDWIIAPTGYYGNYCEGSCPAYLAGVPGSASSFHTAVVNQYRMRGLNPGTVNSCCIPTKLSTMSMLYFDDEYNIVKRDVPNMIVEECGCA
B2: GDF3 (ligand, UniProt Q9NR23 251-364, looked up)
chain: AAIPVPKLSCKNLCHRHQLFINFRDLGWHKWIIAPKGFMANYCHGECPFSLTISLNSSNYAFMQALMHAVDPEIPQAVCIPTKLSPISMLYQDNNDNVILRHYEDMVVDECGCG
B3: activin A (ligand, UniProt P08476 311-426, looked up)
chain: GLECDGKVNICCKKQFFVSFKDIGWNDWIIAPSGYHANYCEGECPSHIAGTSGSSLSFHSTVINHYRMRGHSPFANLKSCCVPTKLRPMSMLYYDDGQNIIKKDIQNMIVEECGCS
notes: also called ActA
B4: BMP6 (ligand, UniProt P22004 382-513, looked up)
chain: QQSRNRSTQSQDVARVSSASDYNSSELKTACRKHELYVSFQDLGWQDWIIAPKGYAANYCDGECSFPLNAHMNATNHAIVQTLVHLMNPEYVPKPCCAPTKLNAISVLYFDDNSNVILKKYRNMVVRACGCH
B5: BMP10 (ligand, UniProt O95393 317-424, looked up)
chain: NAKGNYCKRTPLYIDFKEIGWDSWIIAPPGYEAYECRGVCNYPLAEHLTPTKHAIIQALVHLKNSQKASKACCVPTKLEPISILYLDKGVVTYKFKYEGMAVSECGCR
B6: GDF11 (ligand, UniProt O95390 299-407, looked up)
chain: NLGLDCDEHSSESRCCRYPLTVDFEAFGWDWIIAPKRYKANYCSGQCEYMFMQKYPHTHLVQQANPRGSAGPCCTPTKMSPINMLYFNDKQQIIYGKIPGMVVDRCGCS
notes: also called BMP11
B7: BMP9 (ligand, UniProt Q9UK05 320-429, looked up)
chain: SAGAGSHCQKTSLRVNFEDIGWDSWIIAPKEYEAYECKGGCFFPLADDVTPTKHAIVQTLVHLKFPTKVGKACCVPTKLSPISVLYKDDMGVPTLKYHYEGMSVAECGCR
notes: also called GDF2
B8: ActRIIB-Fc homodimer (Fc fusion, UniProt Q13705 20-134, looked up)
chain: T1 sequence 2
notes: also called ActRIIB-Fc:ActRIIB-Fc homodimer; ActRIIB homodimer; not shown: linker and Fc

Key:
Assay in all cases: SPR (Biacore), Fc protein captured by anti-Fc antibody, ligand injected
[1] = target: T1, ALK4-Fc:ActRIIB-Fc heterodimer
Protocol: (§1) A Biacore™-based binding assay was used to compare ligand binding selectivity of the ALK4-Fc:ActRIIB-Fc heterodimeric complex described above with that of ActRIIB-Fc and ALK4-Fc homodimer complexes. The ALK4-Fc:ActRIIB-Fc heterodimer, ActRIIB-Fc homodimer, and ALK4-Fc homodimer were independently captured onto the system using an anti-Fc antibody. Ligands were injected and allowed to flow over the captured receptor protein. Results are summarized in the table below, in which ligand off-rates (kd) most indicative of effective ligand traps are denoted in bold font.

ActRIIB-Fc homodimer = target: B8
Protocol: as §1

activin A = target: B3
Protocol: as §1

activin B = target: B1
Protocol: as §1

BMP6 = target: B4
Protocol: as §1

Kd [1] [nM]	koff [1] [s⁻¹]	kon [1] [M⁻¹ s⁻¹]	Kd (ActRIIB-Fc homodimer) [nM]	koff (ActRIIB-Fc homodimer) [s⁻¹]	kon (ActRIIB-Fc homodimer) [M⁻¹ s⁻¹]	further results	Binder
0.006	4e-05	7.1e+06	–	–	–	–	B1
4.9	0.017	3.4e+06	1.5	0.0022	1.4e+06	–	B2
0.012	0.00015	1.3e+07	–	–	–	–	B3
2.7	0.0055	2e+06	–	–	–	–	B4
0.074	0.0041	5.6e+07	0.011	0.00026	2.3e+07	–	B5
0.003	0.00011	3.8e+07	0.002	0.00011	5e+07	–	B6
3.4	–	–	0.077	0.0011	1.4e+07	–	B7
–	–	–	–	–	–	Kd (activin A): 0.019 nM; koff (activin A): 0.00023 s⁻¹; kon (activin A): 1.2e+07 M⁻¹ s⁻¹; Kd (activin B): 0.02 nM; koff (activin B): 0.0001 s⁻¹; kon (activin B): 5.1e+06 M⁻¹ s⁻¹; Kd (BMP6): 0.19 nM; koff (BMP6): 0.0068 s⁻¹; kon (BMP6): 3.2e+07 M⁻¹ s⁻¹	B8
